Experiments:
mass photometry = target: the molecule itself; experiment: mass photometry
cryo-EM structure = target: the molecule itself; experiment: cryo-EM structure

B1: cysteine tRNA ligase from archaea (Q8U227) (enzyme, P. furiosus, UniProt Q8U227 1-477, looked up)
chain: MLKVYNTLTKQKEEFKPLREGEVKMYVCGPTVYDYPHLGHARTYIAFDVIRRYLEHKGYTVLMVMNFTDIDDKIIKRARETGEDPKELAERFIKIFLEDMEALKVKPADIYPRVTDHIDDIIEFIGKLKEKGYAYEGSDGIYFEVKKFPEYGKLSGVKIEDLQKGARVEPGEGKKNPEDFALWKKAKPGEPKWDSPWGEGRPGWHIECSVMSSKYLGESFDIHGGGNDLIFPHHENEIAQSEACFGHEWVKYWLHTGFVMVKGEKMSKSLGNFVTIRELLKRYEPEVIRFFVLQKHYRSPLEYTEEGLQHAKNNLQRLYNTLENIRVALRNAEISYTWGELEFKTYEIIREGKRKFYEAMDDDFNTAEALKAVFEVANAINKYLTEANKPKESILRKALEFFKIVSEVFGVFEDYFREETKEREESEKLIELLVEVRKQLRKEKRYELADMIREELKKLGIQLEDRGSETTWKRIIT
stoichiometry N (mass photometry): 2

B2: Q8U0N8, uncharacterized protein of unknown function from Pyrococcus furiosus (natural protein, UniProt Q8U0N8 1-392, looked up)
chain: MSESINNITKPKERRDFVVMAGMRKDGTIDFIKVYALNEKLAIEVLEAFLKENNIHPSDFIVIQRGYEDVKDKKAITTRSEEELSAMLGRLGLRLVSNGVLYTDGIDKLYQITAISRELFESLQKEKREIFEDVQEKITFNFSKVDLPEKYVKKLRLLELMEDTIIFNMAELEIPNLLKAIVEGTVLIPRFLEKEDLIIRIFDEELHEYRGSYFDKVLIKPPIIHWDFYLDSLEDFSFKKVEESIYIAPLFLRATGGFLILTEPPEDLVKTLLKLKKRGEVRTILEGKRITIPINFTLIVDTRHPERYAGLKFPIRINLPPLDDETFLKVLETNLGITPPTEIVRIFPPDYKTFLGVELIKNLFEKLKLTEKGKDEVSLLKEAATIITGGTP
stoichiometry N (cryo-EM structure): 6

— doi:10.1101/2023.06.09.544317 (bioRxiv, 2023)
